Assay [1] concerns the target E. coli scaffold protein IscU (Escherichia coli) (UniProt P0ACD4). Briefly: non-reducing SDS-PAGE with densitometry.
The target is the same in assay [2]. Kind of assay: native MS.
For assay [3], the target named is E. coli cysteine desulfurase IscS (Escherichia coli) (UniProt P0A6B7). Briefly: native MS.
Assay [4] has as its target E. coli scaffold protein IscU (Escherichia coli) (UniProt P0ACD4). Briefly: native MS. This is another data set of the same source.

Where two headings read alike, the source gives them in different places.

UniProt P0A6B7, sequence (P0A6B7 whole entry): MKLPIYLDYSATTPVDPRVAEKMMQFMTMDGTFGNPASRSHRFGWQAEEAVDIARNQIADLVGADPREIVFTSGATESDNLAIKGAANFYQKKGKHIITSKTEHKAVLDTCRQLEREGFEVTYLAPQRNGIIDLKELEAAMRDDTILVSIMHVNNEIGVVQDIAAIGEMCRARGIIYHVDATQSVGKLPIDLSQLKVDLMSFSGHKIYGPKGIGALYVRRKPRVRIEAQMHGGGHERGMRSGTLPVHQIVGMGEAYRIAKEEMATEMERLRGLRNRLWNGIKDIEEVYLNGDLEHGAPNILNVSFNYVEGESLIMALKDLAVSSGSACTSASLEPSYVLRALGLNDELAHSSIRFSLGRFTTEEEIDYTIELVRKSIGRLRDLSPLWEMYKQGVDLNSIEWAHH

One may read the stoichiometry N as the number of molecules, sites or subunits per partner or assembly. As to “E. coli scaffold protein IscU (from UniProt P0ACD4 1-128) (natural protein)”, the percent dimer in assay [1] was 65%. Besides, in assay [2], the percent dimer (of the monomer-to-dimer ratio) turned out to be 14%. In assay [3], this substance came in with a fraction of IscS2 lacking IscU of 11%, a fraction of the IscU2–IscS2 complex of 94%, a fraction of the IscU2–IscS2 species of 86% and a fraction of the IscU-IscS2 complex of 47%. For the same substance, in assay [3], the fraction of the IscU-IscS2 species came to 6% and the stoichiometry N (IscU per IscS dimer) was found to be 2. In assay [4], the percent dimer was 59%, the percent dimer (of the monomer-to-dimer ratio) was found to be 22% and the stoichiometry N worked out at 2.

(Values after paper PMC7262672.)
